One assay concerns the target HLA-C*03:03. The assay is described as follows: IEDB peptide-MHC binding, purified MHC/direct/fluorescence; filed as Kd, often an IC50 or EC50 that approximates it; ≥ and ≤ were set here for values at or beyond the usual limits of such assays. Conditions: source organism: Rickettsia bellii RML369-C.
Another assay has as its target HLA-C*05:01. The assay is described as above. The following applies: source organism: Rickettsia bellii RML369-C.
Another assay addresses HLA-C*07:02. The description is as above. The following applies: source organism: Rickettsia bellii RML369-C.
In a further assay the target is HLA-C*08:02. The assay is described as above. The following applies: source organism: Rickettsia bellii RML369-C.
In another assay the target is HLA-C*12:03. The assay is described as above. The following applies: source organism: Rickettsia bellii RML369-C.
For a further assay, the target named is HLA-C*14:02. The description is as above. Conditions: source organism: Rickettsia bellii RML369-C.
A further assay addresses HLA-C*15:02. The assay is described as above. The following applies: source organism: Rickettsia bellii RML369-C.
The target of a further assay is HLA-A*68:23. Kind of assay: IEDB peptide-MHC binding, purified MHC/competitive/fluorescence; filed as Kd, often an IC50 or EC50 that approximates it; ≥ and ≤ were set here for values at or beyond the usual limits of such assays. The following applies: source organism: Rickettsia bellii RML369-C.
A further assay deals with HLA-B*15:02. The description is as above. Conditions: source organism: Rickettsia bellii RML369-C.
Another assay has as its target HLA-B*15:42. Described as above. Conditions: source organism: Rickettsia bellii RML369-C.
The next assay has as its target HLA-B*27:20. The assay is described as above. Conditions: source organism: Rickettsia bellii RML369-C.
In the next assay the target is HLA-B*45:06. The assay is described as above. Conditions: source organism: Rickettsia bellii RML369-C.
The next assay deals with HLA-B*83:01. The description is as above. Conditions: source organism: Rickettsia bellii RML369-C.
For another assay, the target named is HLA-C*06:02. The description is as above. The following applies: source organism: Rickettsia bellii RML369-C.
A further assay has as its target HLA-A*02:01. Described as above. Conditions: source organism: Xanthobacter autotrophicus Py2.
The target of a further assay is HLA-A*02:12. Described as above. Conditions: source organism: Xanthobacter autotrophicus Py2.
Another assay deals with HLA-A*03:01. The assay is described as above. Conditions: source organism: Xanthobacter autotrophicus Py2.
In another assay the target is HLA-A*25:01. Described as above. Conditions: source organism: Xanthobacter autotrophicus Py2.
The next assay deals with HLA-A*26:01. The description is as above. The following applies: source organism: Xanthobacter autotrophicus Py2.
For a further assay, the target named is HLA-A*29:02. The description is as above. The following applies: source organism: Xanthobacter autotrophicus Py2.
The next assay deals with HLA-A*68:02. The assay is described as above. The following applies: source organism: Xanthobacter autotrophicus Py2.
Another assay addresses HLA-A*69:01. The assay is described as above. Conditions: source organism: Xanthobacter autotrophicus Py2.
The next assay has as its target HLA-A*80:01. The description is as above. The following applies: source organism: Xanthobacter autotrophicus Py2.
A further assay concerns the target HLA-B*15:17. Described as above. The following applies: source organism: Xanthobacter autotrophicus Py2.
Another assay has as its target HLA-B*18:01. The assay is described as above. The following applies: source organism: Xanthobacter autotrophicus Py2.
The target in another assay is HLA-B*27:03. The description is as above. Conditions: source organism: Xanthobacter autotrophicus Py2.
In the next assay the target is HLA-B*46:01. The description is as above. Conditions: source organism: Xanthobacter autotrophicus Py2.
Another assay addresses HLA-B*51:01. The assay is described as above. Conditions: source organism: Xanthobacter autotrophicus Py2.
The next assay addresses HLA-B*57:01. The assay is described as above. The following applies: source organism: Xanthobacter autotrophicus Py2.

On to FAYKTGSSM, for which the Kd (in general, the equilibrium constant for the complex coming apart) in the assay with HLA-C*03:03 is no more than 0.001 µM; with HLA-C*05:01, 1.48 µM; in the assay with HLA-C*07:02 it was 0.876 µM; with HLA-C*08:02, 0.09 µM; with HLA-C*12:03, no more than 0.001 µM; with HLA-C*14:02 it was 0.114 µM. The dissociation constant Kd is 0.004 µM with HLA-C*15:02; 0.0512 µM in the assay with HLA-A*68:23; 0.0127 µM with HLA-B*15:02; no less than 5 µM in the assay with HLA-B*15:42; 0.0234 µM with HLA-B*27:20; no less than 5 µM in the assay with HLA-B*45:06. Besides, the figures for the dissociation constant (Kd) in the assay with HLA-B*83:01 and in the assay with HLA-C*06:02 were no less than 5 µM and 0.125 µM, respectively.
Consider GQMYNMNTL, for which the dissociation constant (Kd) in the assay with HLA-A*02:01 is no less than 20 µM; in the assay with HLA-A*02:12, 0.0014 µM; with HLA-A*03:01, no less than 20 µM; in the assay with HLA-A*25:01, no less than 20 µM; with HLA-A*26:01, no less than 20 µM; with HLA-A*29:02, no less than 20 µM. In addition, the Kd with HLA-A*68:02, with HLA-A*69:01, in the assay with HLA-A*80:01, with HLA-B*15:17, with HLA-B*18:01 and with HLA-B*27:03 was no less than 20 µM throughout. The dissociation constant Kd with HLA-B*46:01, with HLA-B*51:01 and with HLA-B*57:01 was no less than 20 µM in each case.

These data come from the Immune Epitope Database (IEDB).
